The series has as its target 70 kDa N-terminal fragment of fibronectin.

B1: Recombinant human thioredoxin produced in E. coli (protein)
chain: MVKQIESKTAFQEALDAAGDKLVVVDFSATWCGPCKMIKPFFHSLSEKYSNVIFLEVDVDDCQDVASECEVKCMPTFQFFKKGQKVGEFSGANKEKLEATINELV
Take B1: the “thioredoxin-mediated reduction of the fibronectin fragment (free thiols labelled with MPB, SDS-PAGE, streptavidin peroxidase blot)” value is “thioredoxin reduced one or more protein disulfide bonds in the 70 kDa N-terminal fragment of fibronectin”.

For the origin of these results see patent US7186695.
